B1: VRDN-02069 (antibody, V domains shown)
VH: QVQLQESGPGLVKPSETLSLTCTVSGYSITGGYLWNWIRQPPGKGLEWIGYISYHGTNNYKPSLKDRVTISRDTSKNQFSLKLSSVTAADTAVYYCARYGRVFFDYWGQGTLVTVSS
VL: DIVMTQSPLSLPVTPGEPASISCRSSQSIVHSNGNTYLQWYLQKPGQSPQLLIYKVSNRLYGVPDRFSGSGSGTDFTLKISRVEAEDVGVYYCFQGSHVPHTFGQGTKVEIK
B2: VRDN-02071 (antibody, V domains shown)
VH: B1 VH with S53H, H55D, Y99H
VL: B1 VL with S26H, Q95H, H101W
B3: VRDN-02007 (antibody, V domains shown)
VH: B1 VH with G32H, H55D
VL: B1 VL with H101W
B4: VRDN-02012 (antibody, V domains shown)
VH: B1 VH with Y51H, H55D
VL: B1 VL with H101W
B5: VRDN-02070 (antibody, V domains shown)
VH: B1 VH with H55D, Y99H
VL: B1 VL
B6: VRDN-02013 (antibody, V domains shown)
VH: B1 VH with I52H, H55D
VL: B1 VL with H101W
B7: VRDN-02010 (antibody, V domains shown)
VH: B1 VH with W35H, H55D
VL: B1 VL with H101W
B8: VRDN-02009 (antibody, V domains shown)
VH: B1 VH with L34H, H55D
VL: B1 VL with H101W
B9: VRDN-02076 (antibody, V domains shown)
VH: B1 VH with Y99H
VL: B1 VL with S26H
B10: VRDN-02075 (antibody, V domains shown)
VH: B1 VH with Y99H
VL: B1 VL with S26H, P100H, H101W
B11: VRDN-02008 (antibody, V domains shown)
VH: B1 VH with Y33H, H55D
VL: B1 VL with H101W
B12: VRDN-02074 (antibody, V domains shown)
VH: B1 VH with Y99H
VL: B1 VL with S26H, Q95H, H101W
B13: VRDN-02072 (antibody, V domains shown)
VH: B1 VH with S53H, H55D, Y99H
VL: B1 VL with S26H, P100H, H101W
B14: VRDN-02011 (antibody, V domains shown)
VH: B1 VH with N36H, H55D
VL: B1 VL with H101W
B15: VRDN-02014 (antibody, V domains shown)
VH: B1 VH with S53H, H55D
VL: B1 VL with H101W
B16: VRDN-02015 (antibody, V domains shown)
VH: B1 VH with Y54H, H55D
VL: B1 VL with H101W
B17: VRDN-02073 (antibody, V domains shown)
VH: B1 VH with S53H, H55D, Y99H
VL: B1 VL with S26H

Where a chain is given by its changes, count along the chain named.

One test concerns the target Recombinant human his-tagged IGF R extracellular domain protein (human) (UniProt P08069). In words: SPR, Ab captured via anti-huIgG Fc, pH 7.4. On the technique in general: Surface plasmon resonance follows binding to a sensor surface in real time, without labels.
As usually defined, the Kd is the equilibrium constant for the complex coming apart. The term koff denotes a measure of how fast the partners let go of each other. For orientation: kon means the rate constant with which the complex forms. For the molecule B1, the Kd stood at 0.137 nM, the koff was 1.52e-05 s⁻¹ and the kon came to 111000 M⁻¹ s⁻¹.

For B2, the Kd came out at 0.103 nM, the koff came to 1.09e-05 s⁻¹ and the kon came to 105000 M⁻¹ s⁻¹.

As for B3, the dissociation constant Kd stood at 12.8 nM, the koff came out at 0.000743 s⁻¹ and the kon turned out to be 58000 M⁻¹ s⁻¹.

For B4, the equilibrium dissociation constant (Kd) was 0.589 nM, the koff turned out to be 5.41e-05 s⁻¹ and the kon came to 91800 M⁻¹ s⁻¹.

For the molecule B5, the Kd turned out to be 0.322 nM, the koff amounted to 3.38e-05 s⁻¹ and the on-rate (kon) is 105000 M⁻¹ s⁻¹.

For B6, the Kd was 0.674 nM, the koff came to 5.45e-05 s⁻¹ and the kon was determined as 80800 M⁻¹ s⁻¹.

As to B7, the Kd was 6.95 nM, the koff came out at 0.00311 s⁻¹ and the kon worked out at 447000 M⁻¹ s⁻¹.

Take B8: the Kd was found to be 0.442 nM, the koff turned out to be 3.98e-05 s⁻¹ and the kon came out at 90000 M⁻¹ s⁻¹.

For B9, the Kd is 0.21 nM, the koff was 2.46e-05 s⁻¹ and the kon came to 117000 M⁻¹ s⁻¹.

B10: the Kd amounted to 0.237 nM, the off-rate constant (koff) came to 2.76e-05 s⁻¹ and the kon came out at 116000 M⁻¹ s⁻¹.

For the molecule B11, the Kd was found to be 16.6 nM, the koff worked out at 0.0206 s⁻¹ and the kon worked out at 1.24e+06 M⁻¹ s⁻¹.

Consider B12, for which the Kd worked out at 0.301 nM, the koff is 3.98e-05 s⁻¹ and the kon was determined as 132000 M⁻¹ s⁻¹.

B13: the Kd came to 0.281 nM, the koff is 3.57e-05 s⁻¹ and the kon turned out to be 127000 M⁻¹ s⁻¹.

On to B14, for which the Kd was 0.432 nM, the koff is 4.55e-05 s⁻¹ and the kon is 105000 M⁻¹ s⁻¹.

Take B15: the Kd came out at 0.697 nM, the koff is 6.19e-05 s⁻¹ and the kon turned out to be 88700 M⁻¹ s⁻¹.

On to B16, for which the Kd amounted to 0.51 nM, the koff came to 4.57e-05 s⁻¹ and the kon worked out at 89500 M⁻¹ s⁻¹.

As for B17, the Kd was 0.261 nM, the koff was found to be 3.13e-05 s⁻¹ and the kon worked out at 120000 M⁻¹ s⁻¹.

For a further test the target is unchanged. In words: SPR, Ab captured via anti-huIgG Fc, dissociation at pH 6.
For B1, the dissociation constant Kd was determined as 0.325 nM, the koff stood at 5.59e-05 s⁻¹ and the kon turned out to be 172000 M⁻¹ s⁻¹.

In the case of B2, the Kd was 0.352 nM, the koff was 6.64e-05 s⁻¹ and the kon was 189000 M⁻¹ s⁻¹.

For the molecule B3, the Kd was determined as 10.2 nM, the koff worked out at 0.00188 s⁻¹ and the kon is 184000 M⁻¹ s⁻¹.

Turning to B4, the Kd was 1.01 nM, the koff was found to be 0.000103 s⁻¹ and the kon worked out at 102000 M⁻¹ s⁻¹.

For the molecule B5, the Kd was found to be 0.335 nM, the koff was 5.29e-05 s⁻¹ and the kon worked out at 158000 M⁻¹ s⁻¹.

For B6, the Kd worked out at 1.17 nM, the koff came out at 0.000109 s⁻¹ and the kon stood at 93200 M⁻¹ s⁻¹.

Consider B7, for which the Kd turned out to be 7.61 nM, the koff turned out to be 0.00074 s⁻¹ and the kon is 97200 M⁻¹ s⁻¹.

As to B8, the dissociation constant (Kd) was 0.967 nM, the koff was 8.4e-05 s⁻¹ and the kon worked out at 86900 M⁻¹ s⁻¹.

As for B9, the Kd came to 0.178 nM, the koff turned out to be 6.76e-05 s⁻¹ and the kon worked out at 381000 M⁻¹ s⁻¹.

Regarding B10, the Kd was 0.188 nM, the koff was 5.52e-05 s⁻¹ and the kon came out at 294000 M⁻¹ s⁻¹.

For B11, the Kd came out at 13.1 nM, the koff was determined as 0.00143 s⁻¹ and the kon is 109000 M⁻¹ s⁻¹.

Take B12: the Kd worked out at 0.25 nM, the koff is 5.81e-05 s⁻¹ and the kon amounted to 232000 M⁻¹ s⁻¹.

Regarding B13, the Kd was found to be 0.269 nM, the koff is 5.3e-05 s⁻¹ and the kon was determined as 197000 M⁻¹ s⁻¹.

With B14, the Kd amounted to 0.836 nM, the koff was determined as 7.81e-05 s⁻¹ and the kon was determined as 93400 M⁻¹ s⁻¹.

Regarding B15, the Kd stood at 1.11 nM, the koff was 0.000153 s⁻¹ and the kon stood at 138000 M⁻¹ s⁻¹.

Consider B16, for which the Kd was determined as 0.961 nM, the koff worked out at 8.79e-05 s⁻¹ and the kon was determined as 91400 M⁻¹ s⁻¹.

With B17, the Kd is 0.267 nM, the koff came to 4.77e-05 s⁻¹ and the kon came out at 179000 M⁻¹ s⁻¹.

The record behind these values is patent US20240360227A1.
